Source: article PMC8980893, “A fusion of the Bacteroides fragilis ferrous iron import proteins reveals a role for FeoA in stabilizing GTP-bound FeoB” (The Journal of Biological Chemistry, 2022)
Blank lines part the entries; values can stand above or below the compound they belong to.

Experiments:
[1] = target: soluble N-terminal domain of Bacteroides fragilis FeoAB (FeoA fused to the N-terminal GTP-binding domain of FeoB) (Bacteroides fragilis); assay: SEC; 120-ml Superdex 200, 4 °C, 25 mM Tris pH 7.5, 300 mM NaCl, 2% glycerol, 1 mM TCEP; after IMAC
[2] = target: T1, BfNFeoAB (Bacteroides fragilis, UniProt Q5LFM5); assay: hydrogen-deuterium exchange mass spectrometry; format: binding; conditions: 25 mM Tris pD 7.5, 300 mM NaCl, 2% glycerol, 1 mM TCEP, 25 °C
T1 construct: gene BF9343_1287; N-terminal soluble domain of natural FeoAB fusion (FeoA, linker, G-protein and GDI domains), residues 1-438, without transmembrane region; from E. coli C43(DE3) deltaacrB; monomer, about 53 kDa; PDB 7R7B covers FeoA residues 1-74 only
T1 sequence (Q5LFM5 1-438): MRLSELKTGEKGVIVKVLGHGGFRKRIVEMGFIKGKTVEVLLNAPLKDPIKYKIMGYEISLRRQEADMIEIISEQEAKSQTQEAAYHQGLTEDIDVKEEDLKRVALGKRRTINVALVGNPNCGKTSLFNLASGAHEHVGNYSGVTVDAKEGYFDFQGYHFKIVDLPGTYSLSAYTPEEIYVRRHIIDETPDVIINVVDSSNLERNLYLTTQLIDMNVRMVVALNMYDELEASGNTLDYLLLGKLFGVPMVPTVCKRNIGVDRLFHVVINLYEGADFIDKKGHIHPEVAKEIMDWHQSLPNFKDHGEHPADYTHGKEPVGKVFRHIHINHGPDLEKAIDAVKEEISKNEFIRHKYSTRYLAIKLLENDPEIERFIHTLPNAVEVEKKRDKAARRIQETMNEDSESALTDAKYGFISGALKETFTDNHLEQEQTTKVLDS

[3] = target: NFeoB region (G-protein domain and GDI domain) of Bacteroides fragilis FeoAB (Bacteroides fragilis)

- stoichiometry N [1]: 3
Compound: soluble N-terminal domain of Bacteroides fragilis FeoAB (FeoA fused to the N-terminal GTP-binding domain of FeoB) (domain or fragment)

Compound: Nc1nc2c(ncn2[C@@H]2O[C@H](COP(=O)(O)OP(=O)(O)NP(=O)(O)O)[C@@H](O)[C@H]2O)c(=O)[nH]1 [GMP-PNP]
- hydrogen-deuterium exchange mass spectrometry ([2]; 5 mM GMP-PNP, nonhydrolyzable GTP analog): Binding of the nonhydrolyzable GTP analog with GMP-PNP elicits increases in protein protection

Compound: Nc1nc2c(ncn2[C@@H]2O[C@H](COP(=O)(O)OP(=O)(O)O)[C@@H](O)[C@H]2O)c(=O)[nH]1 [GDP]
- hydrogen-deuterium exchange mass spectrometry ([2]; 5 mM GDP): binding of GDP elicits a mixture of protein protection and deprotection

- kcat of GTP hydrolysis by BfNFeoAB (FeoA present on the chain), 1D-31P NMR, 37 °C [3]: 0.00071 s⁻¹
- kcat of GTP hydrolysis by BfNFeoB-L (FeoA deleted), malachite green assay, 37 °C [3]: 0.037 s⁻¹
Compound: FeoA domain of Bacteroides fragilis FeoAB (domain or fragment)
